B1: Enterobactin synthase component B (Escherichia coli (strain K12)), P0ADI4 (parent)
chain: MAIPKLQAYALPESHDIPQNKVDWAFEPQRAALLIHDMQDYFVSFWGENCPMMEQVIANIAALRDYCKQHNIPVYYTAQPKEQSDEDRALLNDMWGPGLTRSPEQQKVVDRLTPDADDTVLVKWRYSAFHRSPLEQMLKESGRNQLIITGVYAHIGCMTTATDAFMRDIKPFMVADALADFSRDEHLMSLKYVAGRSGRVVMTEELLPAPIPASKAALREVILPLLDESDEPFDDDNLIDYGLDSVRMMALAARWRKVHGDIDFVMLAKNPTIDAWWKLLSREVK
partner: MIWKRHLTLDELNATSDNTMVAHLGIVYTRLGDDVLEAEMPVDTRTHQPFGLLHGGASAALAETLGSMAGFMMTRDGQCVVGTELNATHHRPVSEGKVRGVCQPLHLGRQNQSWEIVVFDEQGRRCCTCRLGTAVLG

Variants of: B1
Details: with enth_ecoli entH

| Variant | effect of a mutation on the interaction |
| --- | --- |
| MAIPKLQAYALPESHDIPQNKVDWAFEPQRAALLIHDMQDYFVSFWGENCPMMEQVIANIAALRDYCKQHNIPVYYTAQPKEQSDEDRALLNDMWGPGLTRSPEQQKVVDRLTPDADDTVLVKWRYSAFHRSPLEQMLKESGRNQLIITGVYAHIGCMTTATDAFMRDIKPFMVADALADFSRDEHLMSLKYVAGRSGRVVMTEELLPAPIPASKAALREVILPLLDESDEPFDDDNLIDYGLDAVRMMALAARWRKVHGDIDFVMLAKNPTIDAWWKLLSREVK [S245A] | decreasing interaction strength |

— IntAct's records for PubMed 17675380
